The target of assay [1] is T1, mIgM (Mus musculus, UniProt P01872).
T1 sequence (P01872 1-454): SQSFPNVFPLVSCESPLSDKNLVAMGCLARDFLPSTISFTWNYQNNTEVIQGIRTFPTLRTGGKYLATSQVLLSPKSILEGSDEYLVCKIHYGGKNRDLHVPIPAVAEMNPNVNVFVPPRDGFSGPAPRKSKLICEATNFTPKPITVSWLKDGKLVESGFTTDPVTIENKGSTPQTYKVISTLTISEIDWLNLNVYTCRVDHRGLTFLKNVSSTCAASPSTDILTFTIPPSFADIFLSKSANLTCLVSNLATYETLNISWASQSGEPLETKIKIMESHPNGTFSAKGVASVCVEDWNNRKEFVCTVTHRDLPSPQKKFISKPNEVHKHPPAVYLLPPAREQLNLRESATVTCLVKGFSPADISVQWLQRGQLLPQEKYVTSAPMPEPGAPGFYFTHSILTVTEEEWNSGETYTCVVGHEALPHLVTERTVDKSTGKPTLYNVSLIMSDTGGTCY
Kind of assay: IgM binding ELISA (mouse IgM). Particulars: for IgM Binding EC50: mIgM-coated ELISA, half-log dilution 10 μg/ml-0.01 μg/ml. The protocol: Reactivity of the DVD-Ig proteins with mIgM was determined by enzyme-linked immunosorbent assay (ELISA). Briefly, each well of an Ultra Cruz 96 well microtiter plate (Santa Cruz Biotechnology, Dallas, Tex.) was coated with mIgM at a concentration of 1 μg/ml in 100 μl of PBS. The plate was covered in plastic wrap and incubated overnight at 4° C. Each well of the plate was then washed 3× with 300 μl of PBST. After the final wash, 200 μl of blocking buffer (1% BSA in PBS) was added to each well and the plate incubated at RT for 2 hours. The plate was then washed as above. Rows B-H of the microtiter plate were filled with 100 μl of dilution buffer (1% BSA in PBST). The DVD-Ig proteins were then diluted to […] in dilution buffer and 147 μl of a DVD-Ig protein was added in duplicate to row A of a 96 well plate. For a ½ log dilution, 47 μl was transferred from row A to row B. The pipette tips were replaced with clean tips and 47 μl from row B was transferred to row C. The serial transfers were repeated as above until row G. To assess the binding of the secondary detection reagent to the coated IgM, the final transfer 47 μl was only transferred from G1-G10 to H1-H10 and wells H11 and H12 were left containing 100 μl of dilution buffer. To maintain a 100 μl assay volume, 47 μl was removed from wells H1-H10 and G11-G12 and discarded. After the serial dilution was completed, the plate was incubated for 1-2 hours at RT. The plate was washed as above and then 100 μl of horseradish peroxidase conjugated goat α-hIgG Fc specific, diluted 1:3,000 in dilution buffer, was added to each well. The plate was incubated for 1 hour at RT and then washed 4× as above. The plate was developed by adding 100 μl of 3′,3′,5′,5′-Tetramethylbenzidine (TMB) substrate solution to each well and incubating the plate in the dark for 10-15 minutes. The enzymatic reaction was stopped by adding 100 μl of 1M H2SO4 to each well. The plate was read at 450 nm on an EnVision 2102 multilabel reader (Perkin Elmer, Waltham, Mass.).
DVD-Ig proteins DVD3751-DVD3760 were characterized by IgM binding assay at half-log dilution starting at 10 μg/ml-0.01 μg/ml according to the method of Example 2.5.
IgM binding ELISA: Titrations of the DVD-Ig™ proteins (10 μg/ml to 0.01 μg/ml) were added to ELISA plates coated with murine IgM. Bound antibody was detected with biotinylated anti-human IgG and streptavidin-HRP. EC50 were calculated from the titration curve using Prism6.

The test system of assay [2] is AM14 TLR9−/− B cells. The experiment in a line: [3H]thymidine incorporation, BCR/TLR9 stimulation of AM14 TLR9-/- B cells. It is filed as cell-based, mouse. The settings on record: at 5 mg/ml; 24 hours, then 6 hours pulse. The text has this:
The AM14 B cell receptor (BCR) transgenic mouse has been described previously (Sweet et al. (2010) Autoimmun 43(8): 607-18). Briefly, AM14 is a BCR comprising the AM14 heavy chain and the Vk8 light chain that recognizes murine IgG2a (mIgG2a) of the “a” allotype. Between 95-98% of B cells in a mouse positive for the AM14 heavy chain and Vk8 light chain express the AM14 BCR. To generate AM14 B cells that are deficient in TLR9, TLR7 or FcγRIIB, the AM14 and Vk8 genes were bred to the appropriate knock out mice.
Primary murine B cells were purified by positive selection using BD Imag™ CD45R/B220 magnetic particles (BD Biosciences, San Jose, Calif.). Briefly, B cells were cultured in RPMI containing, pencillin-streptomycin, β-mercaptoethanol, and 5% heat-inactivated fetal calf serum (FCS) in 96 well flat bottom plates at a density of 4×10^5 cells/well. For stimulation through the BCR and TLR9, B cells were treated with a titration of 0.3 μg/ml-0.03 μg/ml of PA4 or 5 μg/ml to 0.15 μg/ml of a DVD-Ig protein (DVD3751, DVD3752, DVD3754, DVD3755, DVD3759 and DVD3760), unless otherwise noted. Cells were also treated with 1 μg/ml 1826, an experimental ligand for TLR9, as a control. After 24 hours, the cells were pulsed for 6 hours with [3H]thymidine (Perkin Elmer, Waltham Mass.). Incorporation of [3H]thymidine was quantified via a liquid scintillation beta counter (Trilux 1450 MicroBeta, PerkinElmer) according to standard methods.
DVD-Ig proteins DVD3751-DVD3760 were characterized by ^3H incorporation at […] according to the method of Example 2.6.

B1: DVD3754: DVD-Ig: VD1 DNA(PA4), SL linker, VD2 mIgM (B7.6); heavy SEQ ID NO 54, light 55 (antibody)
heavy: EVQLVESGGGLVKPGGSLKLSCVASGFTFSTYAMSWVRQTPTKRLEWVATISRGGVSTYYPDTVKGRFTISRDNAKNTLYLQMSSLRSEDTAMYYCARPPTIVTTWFAYWGQGTLVTVSSASTKGPQVQLKESGPGLVKPSLTLSLTCTVSGFSLNGYGVIWVRQPPGKGLEWMGVIWGNGNTNYNSTLKSRLSISRDTSKSQVFLKMNNLQTEDTAMYFCARSENYYSSPGYFAYWGQGTLVTVSS
light: DVVMTQTPLSLPVSLGDQASISCRSSQSLVHSNGNTYLHWYLQKPGQSPKLLIYKVSNRFSGVPDRFSGSGSGTDFTLKISRVEAEDLGAYFCSQSTHVPYTFGGPTRLEIKRTVAAPSVFIFPPNTVMTQSPTSMFISVGDRVTMNCKASQNVGSDVDWYQQKTGQSPKLLISGTSNRYTGVPDRFTGSGSGTDFTLTISNMQAEDLAVYYCLQYNYNPTFGAGTKLELKR
For B1, the “IgM binding by direct binding ELISA” value in assay [1] (Example 6, FIG. 8B) is on record as “intermediate IgM binding affinity”. Also, the “IgM Binding EC50” value in assay [1] was determined as 0.1167 µg/mL. Also, in assay [2], the “3H incorporation AM14 TLR9−/−” value is on record as “(1597)”.

B2: DVD3759: DVD-Ig: VD1 mIgM (B7.6), SL linker, VD2 DNA(PA4); heavy SEQ ID NO 64, light 65 (antibody)
heavy: QVQLKESGPGLVKPSLTLSLTCTVSGFSLNGYGVIWVRQPPGKGLEWMGVIWGNGNTNYNSTLKSRLSISRDTSKSQVFLKMNNLQTEDTAMYFCARSENYYSSPGYFAYWGQGTLVTVSSASTKGPEVQLVESGGGLVKPGGSLKLSCVASGFTFSTYAMSWVRQTPTKRLEWVATISRGGVSTYYPDTVKGRFTISRDNAKNTLYLQMSSLRSEDTAMYYCARPPTIVTTWFAYWGQGTLVTVSS
light: NTVMTQSPTSMFISVGDRVTMNCKASQNVGSDVDWYQQKTGQSPKLLISGTSNRYTGVPDRFTGSGSGTDFTLTISNMQAEDLAVYYCLQYNYNPTFGAGTKLELKRTVAAPSVFIFPPDVVMTQTPLSLPVSLGDQASISCRSSQSLVHSNGNTYLHWYLQKPGQSPKLLIYKVSNRFSGVPDRFSGSGSGTDFTLKISRVEAEDLGAYFCSQSTHVPYTFGGPTRLEIKR
For the molecule B2, in assay [1] (among DVD3751-DVD3760), the “potency in IgM binding assay” value is given as “highest potency”. Further, the “IgM Binding EC50” value in assay [1] was 0.04116 µg/mL. Besides, in assay [2], the “3H incorporation AM14 TLR9−/−” value is “(970)”.

For the origin of these results see patent US20150125397A1, “DUAL SPECIFIC BINDING PROTEINS DIRECTED AGAINST IMMUNE CELL RECEPTORS AND AUTOANTIGENS” (ABBVIE INC., priority 2013, published 2015).
